This passage reports EC50 results from US20230002757A1.

For this experiment, the target named is KLH (Keyhole Limpet Hemocyanin) (keyhole limpet). The experiment can be described thus: ELISA on KLH.

B1: NGS602-OLIGO_152 (VHH)
VHH: QVQLVESGGGLVQAGDSLRLSCAASGDNFSRYTFGWFRQAPGKEREFVAVINWSGSYTYVADSVAGRFTMSRDNAKHLVYLQMDSLNTGDTAVYYCAAHWDYGSSSRRQREYDYWGQGTQVIVSS
For the molecule B1, the EC50 is 0.638 nM.

B2: NGS602-OLIGO_169 (VHH)
VHH: RVQLVESGGGLVQAGGALRLSCVGSGFTFRDTAMAWFRQSPGKEREFVAGFSILSRYADSVKGRFTISRDNDKNTVYLQMNSLKPEDTAVYYCAAGDGTIASVLTTSGVNFWGQGTQVTVSS
As to B2, the EC50 amounted to 0.213 nM.

B3: NGS602-OLIGO_149 (VHH)
VHH: QVQLVESGGGLVQAGDSLRLSCAASGRTFSSYAMAWFRRPPGKAREFVALIRWSNGRTAVVDSVKGRFTASRDNAKNTGYLQMDSLKSEDTAVYYCAACDQALDPPRCNDWGQGTQVTVSS
Molecule B3 had an EC50 of 0.147 nM.

B4: NGS602-OLIGO_28 (VHH)
VHH: QVQLVESGGGLVRAGGSLRLSCAASGRAFSSYPMGWFRRAPGKEREFVAAISLSGSKQYYVDSVKGRFTISRDNAKNTVSLQMNSLKPEDTAVYYCAALKDGEPPAVDYWGQGTQVTVSS
With B4, the EC50 is 0.707 nM.

B5: NGS602-OLIGO_2 (VHH)
VHH: QVQLVESGGGLVQPGGSLRLSCAASESIRSIYAMGWYRQAPGKQRELVALVTDDGSTDYVDSVKGRFTVSRDSAKNTVYLQMNSLKPEDTAVYHCYVEGSTHYDPVREYWGKGTLVTVSS
As to B5, the EC50 was 1.74 nM.

B6: NGS602-OLIGO_221 (VHH)
VHH: QVQLVESGGGLVQAGESLRLSCVASGRTFSSYAMGWFRQAPGQEREFVARISRRGTNTYYADSVRGRFTISRDNAKNTVYLQMNSLKPEDTAVYYCAADRSDVFEKDPGYYDYWGQGAQVTVSS
On to B6, for which the EC50 was 220 nM.

B7: NGS602-OLIGO_266 (VHH)
VHH: QVQLVESGGGLVQAGGSLRLSCAASGRTFFTYPMGWFRQAPGKERQFVAAISGNGDSIDYADSVKGRFTISRDNAKNTLYLQMNSLKPEDAALYYCNAVITHDYTRPLFASWGQGTQVTVSS
The molecule B7 showed an EC50 of 0.195 nM.

B8: NGS602-OLIGO_31 (VHH)
VHH: QVQLVESGGGLVQAGDSLRLSCTASGTTFDRYHMGWFRQAPGMERHVVAHISWSGANTYVADSMKGRFTISRDNAKNTAYLQINNLKFEDTALYYCAAGSYLAVPGSRWDYWGQGTQVTVSS
The molecule B8 displayed an EC50 of 1.01 nM.

B9: NGS602-OLIGO_72 (VHH)
VHH: QVELVESGGALVQAGGSLKLSCVDSGRSFSSYVVAWFRQAPGKEREFVARVSASGAIRTYADSVRGRFTISRDNTKATVYLQMNSLKSEDTAVFFCAAGGVSTAVHPFKPTSYDFWGQGTQVTVSV
As to B9, the EC50 came to 0.072 nM.

B10: NGS602-OLIGO_12 (VHH)
VHH: QVQLVESGGGSVQAGGSLRLSCAASGRTFGRHVMAWFRQAPGREREFVAAISGNGRVTNYALSMKGRFTISRDNANDMVYLQMDGLKPEDTAVYSCATRMAFDSDSNFPATYDVWGQGTQVTVSS
B10 gave an EC50 of 0.181 nM.

B11: NGS602-OLIGO_186 (VHH)
VHH: QVQLAESGGGLVQAGDSLRLSCAASGRSVSSYAMGWFRQAPGKEREFVAAISWSGESTHYADSVKGRFTISRDNAENTVYLQMNSLKPEDTAVYYCASYLSGHYYFGIGRDPPFGSWGQGTQVTVSS
In turn, B11 returned an EC50 of 0.28 nM.

B12: NGS602-OLIGO_185 (VHH)
VHH: QVQLVESGGGLVQAGGSLRLSCAASGRTSSRYVMGWFRQSPGKEREFVAAISANGRSTNYAGSVNGRFKISRDGAKDKVDLQMNSLKPEDTAVYFCATNMAFSSSSNFPANYDVWGQGTQVTVSS
As to B12, the EC50 is 0.077 nM.

B13: NGS602-OLIGO_30 (VHH)
VHH: QVQLVESGGGTVQAGGSLRLSCAASGLTFGSYAMEWYRQAPGKERELVATISSGGNTHYLASVKGRFTISRDNDKNTLYLQMNSLKPEDTAVYYCAAKYGWTGIWYAPSDYVHLGPGTQVTVSS
Consider B13, for which the concentration for a half-maximal effect (EC50) stood at 0.067 nM.

B14: NGS602-OLIGO_151 (VHH)
VHH: EVQLVESGGGLVQPGGSLRLSCTASGFTLSTSPVSWARQAPGKGPEWLAGIYSDGRTSNLVSLRGRFTISRDNAKNTVYLQMNSLLPEDTALYYCAIGAAAVGGLRGQGTQVTVSS
For B14, the EC50 was 0.409 nM.

B15: NGS602-OLIGO_55 (VHH)
VHH: QVQLTESGGGLVQAGASLRLSCVASPDTPSTYTIAWFRRAPGKERDFVANIARAGTTITYADSVKGRFTISKDNARNTVYLQMNNLTPADTAIYYCAAYSPGSIIARDSTQYRYWGQGTRVTVSE
Molecule B15 had an EC50 of 0.241 nM.

B16: NGS602-OLIGO_35 (VHH)
VHH: QVSLVESGGGLVQAGGSLRLSCAASGRTFRRSAMGWFRRPPGKEREFVAAITSSGGSIYDPDIAKDRFTISRDNSKTSVYLQMNNLKPEDTAVYYCSLKTTYSGGPYDYTKGPEYDYWGQGTQVTVSS
The molecule B16 had an EC50 of 0.291 nM.

B17: NGS602-OLIGO_359 (VHH)
VHH: QVQLVESGGGLVQPGGSLRLSCAASGYSLSFYAMGWYRQSPGKQREVVARIAGPGVTNYADSVMGRFTISRDNAKNMVYLQMNSLEPEDTAVYYCNAGGTRWSVGDYWGKGTLVTVSS
Turning to B17, the EC50 is 0.61 nM.

B18: NGS602-OLIGO_42 (VHH)
VHH: QVQLVESGGGLVQAGGSLRLSCLFSGTFGIYGMGWFRQAPGKAREFVAGVSRHGLTTQYADSVKGRFTISRDNAKNTMYLQMNSLKPEDTADYYCARSRLSASLLVTASDYDYWGQGTQVTVSS
B18 showed a half-maximal effective concentration (EC50) of 0.342 nM.

B19: NGS602-OLIGO_205 (VHH)
VHH: RVQLVESGGGLVQPGGSLRLSCTASGLPLNTAAMSWYRQTPGKERELVASISITGDSTTYADSVKGRFTISRDNVKNIVYLQMDILKPEDTAVYYCTRAPWDYKYWGQGTQVTVSS
B19 had an EC50 of 1.16 nM.
